Test results taken from US20060177862A1 (CAMBRIDGE ANTIBODY TECHNOLOGY, published 2006).

Molecular target: T1, TGFβ-1 (UniProt P01137 279-390)
T1 construct: Antigen coated on ELISA plates at 1 µg/ml
Assay: method not stated; value listed for the panel of existing phage-display scFv

T1 sequence (P01137 279-390 limits assumed): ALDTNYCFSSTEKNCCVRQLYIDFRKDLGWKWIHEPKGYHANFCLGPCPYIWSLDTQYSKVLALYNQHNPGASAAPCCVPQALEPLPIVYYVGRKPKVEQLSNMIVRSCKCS

Kd: 8 nM
B1: ScFv 1 (scFv, V domains shown)
VH: EVQLVESGGGLVQPGGSLRLSCAASGYAFTNYLIEWVRQAPGKGLEWVGVINPGSGGSNYNEKFKGRATISADNSKNTLYLQMNSLRAEDTAVYYCARSGGFYFDYWGQGTLVTVSS
VL: DIQMTQSPSSLSASVGDRVTITCRASQSVLYSSNQKNYLAWYQQKPGKAPKLLIYWASTRESGVPSRFSGSGSGTDFTLTISSLQPEDFATYYCHQYLSSDTFGQGTKVEIK
